Test results: PMC12215978, “CryoEM structure of the SLFN14 endoribonuclease reveals insight into RNA binding and cleavage” (Nature Communications, 2025)
Where “and” joins values, the source holds several entries; their conditions need not be identical. Identical values can stand only once.

Experiments:
[1] = biological target: isolated SLFN14 CTD (SLFN14^CTD) (human); assay: SEC; Superdex-200 Increase 3.2/300, 5–10 μM protein, storage buffer (20 mM Tris pH 7.4, 150 mM NaCl, 5 mM MgCl2, 1 mM TCEP), calibrated with gel filtration standards
[2] = biological target: SLFN14^ΔCTD, SLFN14 C-terminal truncation that lacks the CTD (human); assay: as above
[3] = biological target: the molecule itself; assay: mass photometry; purified SLFN14 in solution; also exposed to high salt conditions; methods not shown

Q: How did the stoichiometry N [1] turn out when “isolated SLFN14 CTD (SLFN14^CTD) (domain or fragment)” was run?
A: 2

Q: With “SLFN14^ΔCTD, SLFN14 C-terminal truncation that lacks the CTD (domain or fragment)” as the molecule, how does the stoichiometry N [2] read?
A: 2

B1: full-length recombinant human SLFN14 (residues 1–912), C-terminally Flag-tagged (enzyme, UniProt P0C7P3 1-912, looked up)
chain: MESLKTDTEMPYPEVIVDVGRVIFGEENRKKMTNSCLKRSENSRIIRAICALLNSGGGVIKAEIDDKTYSYQCHGLGQDLETSFQKLLPSGSQKYLDYMQQGHNLLIFVKSWSPDVFSLPLRICSLRSNLYRRDVTSAINLSASSALELLREKGFRAQRGRPRVKKLHPQQVLNRCIQEEEDMRILASEFFKKDKLMYKEKLNFTESTHVEFKRFTTKKVIPRIKEMLPHYVSAFANTQGGYVLIGVDDKSKEVVGCKWEKVNPDLLKKEIENCIEKLPTFHFCCEKPKVNFTTKILNVYQKDVLDGYVCVIQVEPFCCVVFAEAPDSWIMKDNSVTRLTAEQWVVMMLDTQSAPPSLVTDYNSCLISSASSARKSPGYPIKVHKFKEALQRHLFPVTQEEVQFKPESLCKKLFSDHKELEGLMKTLIHPCSQGIVIFSRSWAGDVGFRKEQNVLCDALLIAVNSPVVLYTILIDPNWPGGLEYARNTAHQLKQKLQTVGGYTGKVCIIPRLIHLSSTQSRPGEIPLRYPRSYRLADEEEMEDLLQALVVVSLSSRSLLSDQMGCEFFNLLIMEQSQLLSESLQKTRELFIYCFPGVRKTALAIKIMEKIKDLFHCKPKEILYVCESDSLKDFVTQQTTCQAVTRKTFMQGEFLKIKHIVMDETENFCSKYGNWYMKAKNITHPKAKGTGSENLHHGILWLFLDPFQIHHADVNGLPPPSAQFPRKTITSGIHCALEIAKVMKEEMKRIKENPPSNMSPDTLALFSETAYEEATCAQALPGVCETKTNLTTEQIANYVARKCHSLFQCGYLPKDIAILCRRGEDRGRYRLALLKAMELIETHRPSEVVFSPATGVWGSHIVLDSIQQFSGLERTVVFGLSPECDQSEEFHKLCFASRAIKHLYLLYEKRAAY
notes: human SLFN14, full length, residues 1-912; The sample keeps co-purified cellular nucleic acid, and the structure has RNA in the cleft; also called SLFN14 wild-type (WT); Schlafen 14; not shown: Flag, C-terminal, kept
Q: Which “stoichiometry N” value [3] does the source give for B1 here?
A: 2 and 4
